# Reference: publication PMC10447908 (2023)
# Experiments:
# Assay in all cases: FACS
# [1] = target: SARS-CoV-2 Spike receptor binding domain, Wuhan (ancestral) variant (SARS-CoV-2, UniProt P0DTC2, biotinylated in vitro when needed)
# [2] = target: SARS-CoV-2 Spike receptor binding domain, Omicron variant (SARS-CoV-2, UniProt P0DTC2, biotinylated in vitro when needed)
# [3] = target: SARS-CoV-2 Spike receptor binding domain, Delta variant (SARS-CoV-2, UniProt P0DTC2, biotinylated in vitro when needed)
Binder,IC50 [1],IC50 [2],IC50 [3]
Xiang-Liu 2 (designed binder) NDDELHMLMTDLVYEALHFAKDEEIKKRVFQLFELADKAYKNNDRQKLEKVVEELKELLERLLSEEDPCACESILKFEAKVEGLLQALTRKLEAVSGRLAVLENRIIQVQLVESGGGLVQAGGSLRLSCAASGRTFSNDALGWFRQAPRKEREFVAAINWNSGTYYADSVKGRFTISRDNAKNTVYLQMNSLKPEDTAVYSCAAASDYGLPREDFLYDYWGQGTQVTVSS,12.6 nM,5.2 nM,6.8 nM
Xiang-Liu 1 (designed binder) NDDELHMLMTDLVYEALHFAKDEEIKKRVFQLFELADKAYKNNDRQKLEKVVEELKELLERLLSEEDPCACESILKFEAKVEGLLQALTRKLEAVSGRLAVLENRIIDKEWILQKIYEIMRLLDELGHAEASMRVSDLIYEFMKKGDERLLEEAERLLEEVER,9.3 nM,36.4 nM,5.1 nM
